# Results: US20240270846A1 (published 2024)
# Changes are numbered by the printed parent chain. Names may count otherwise.
# B1: GLS3000 H27dK (Kabat) L chain altered form, one-arm antibody with CE115HA000 (antibody, human IgG1, kappa, L234A L235A, N297A, name in Kabat numbering)
# heavy: QVQLVESGGGVVQPGRSLRLSCAASGFTFSNAWMHWVRQAPGKGLEWVAQIKAKSNNYATYYAESVKGRFTISRDDSKNSLYLQMNSLKTEDTAVYYCRYVHYGAYYGVDAWGQGTTVTVSSASTKGPSVFPLAPSSKSTSGGTAALGCLVKDYFPEPVTVSWNSGALTSGVHTFPAVLQSSGLYSLSSVVTVPSSSLGTQTYICNVNHKPSNTKVDKKVEPKSCDKTHTCPPCPAPEAAGGPSVFLFPPKPKDTLMISRTPEVTCVVVDVSHEDPEVKFNWYVDGVEVHNAKTKPREEQYASTYRVVSVLTVLHQDWLNGKEYKCKVSNKALPAPIEKTISKAKGQPREPQVYTLPPSRCELTKNQVSLSCAVKGFYPSDIAVEWESNGQPENNYKTTPPVLDSDGSFFLVSKLTVDKSRWQQGNVFSCSVMHEALHNHYTQKSLSLSPDYKDDDDK
# chain: EPKSSDKTHTCPPCPAPELLGGPSVFLFPPKPKDTLMISRTPEVTCVVVDVSHEDPEVKFNWYVDGVEVHNAKTKPREEQYNSTYRVVSVLTVLHQDWLNGKEYKCKVSNKALPAPIEKTISKAKGQPREPQVCTLPPSRDELTKNQVSLWCLVKGFYPSDIAVEWESNGQPENNYKTTPPVLDSDGSFFLYSKLTVDKSRWQQGNVFSCSVMHEALHNRYTQKSLSLSP
# light: DIVMTQSPLSLPVTPGEPASISCRSSQSLVKSNRNTYLHWYQQKPGQAPRLLIYKVSNRFSGVPDRFSGSGSGTDFTLKISRVEAEDVGVYYCGQGTQVPYTFGQGTKLEIKRTVAAPSVFIFPPSDEQLKSGTASVVCLLNNFYPREAKVQWKVDNALQSGNSQESVTEQDSKDSTYSLSSTLTLSKADYEKHKVYACEVTHQGLSSPVTKSFNRGEC
# notes: one-arm antibody
# B2: GLS3000 H27dL (Kabat) L chain altered form, one-arm antibody with CE115HA000 (antibody, human IgG1, kappa, L234A L235A, N297A, name in Kabat numbering)
# heavy: B1 heavy
# chain: B1 chain
# light: B1 light with K31L
# notes: one-arm antibody
# B3: GLS3000 H27dM (Kabat) L chain altered form, one-arm antibody with CE115HA000 (antibody, human IgG1, kappa, L234A L235A, N297A, name in Kabat numbering)
# heavy: B1 heavy
# chain: B1 chain
# light: B1 light with K31M
# notes: one-arm antibody
# B4: GLS3000 H27dN (Kabat) L chain altered form, one-arm antibody with CE115HA000 (antibody, human IgG1, kappa, L234A L235A, N297A, name in Kabat numbering)
# heavy: B1 heavy
# chain: B1 chain
# light: B1 light with K31N
# notes: one-arm antibody
# B5: GLS3000 H27dP (Kabat) L chain altered form, one-arm antibody with CE115HA000 (antibody, human IgG1, kappa, L234A L235A, N297A, name in Kabat numbering)
# heavy: B1 heavy
# chain: B1 chain
# light: B1 light with K31P
# notes: one-arm antibody
# B6: GLS3000 H27dQ (Kabat) L chain altered form, one-arm antibody with CE115HA000 (antibody, human IgG1, kappa, L234A L235A, N297A, name in Kabat numbering)
# heavy: B1 heavy
# chain: B1 chain
# light: B1 light with K31Q
# notes: one-arm antibody
# B7: GLS3000 H27dR (Kabat) L chain altered form, one-arm antibody with CE115HA000 (antibody, human IgG1, kappa, L234A L235A, N297A, name in Kabat numbering)
# heavy: B1 heavy
# chain: B1 chain
# light: B1 light with K31R
# notes: one-arm antibody
# B8: GLS3000 H27dS (Kabat) L chain altered form, one-arm antibody with CE115HA000 (antibody, human IgG1, kappa, L234A L235A, N297A, name in Kabat numbering)
# heavy: B1 heavy
# chain: B1 chain
# light: B1 light with K31S
# notes: one-arm antibody
# B9: GLS3000 H27dT (Kabat) L chain altered form, one-arm antibody with CE115HA000 (antibody, human IgG1, kappa, L234A L235A, N297A, name in Kabat numbering)
# heavy: B1 heavy
# chain: B1 chain
# light: B1 light with K31T
# notes: one-arm antibody
# B10: GLS3000 H27dV (Kabat) L chain altered form, one-arm antibody with CE115HA000 (antibody, human IgG1, kappa, L234A L235A, N297A, name in Kabat numbering)
# heavy: B1 heavy
# chain: B1 chain
# light: B1 light with K31V
# notes: one-arm antibody
# B11: GLS3000 H27dW (Kabat) L chain altered form, one-arm antibody with CE115HA000 (antibody, human IgG1, kappa, L234A L235A, N297A, name in Kabat numbering)
# heavy: B1 heavy
# chain: B1 chain
# light: B1 light with K31W
# notes: one-arm antibody
# B12: GLS3000 H27dY (Kabat) L chain altered form, one-arm antibody with CE115HA000 (antibody, human IgG1, kappa, L234A L235A, N297A, name in Kabat numbering)
# heavy: B1 heavy
# chain: B1 chain
# light: B1 light with K31Y
# notes: one-arm antibody
# B13: GLS3000 H34A (Kabat) L chain altered form, one-arm antibody with CE115HA000 (antibody, human IgG1, kappa, L234A L235A, N297A, name in Kabat numbering)
# heavy: B1 heavy
# chain: B1 chain
# light: B1 light with K31H, H39A
# notes: one-arm antibody
# B14: GLS3000 K50A (Kabat) L chain altered form, one-arm antibody with CE115HA000 (antibody, human IgG1, kappa, L234A L235A, N297A, name in Kabat numbering)
# heavy: B1 heavy
# chain: B1 chain
# light: B1 light with K31H, K55A
# notes: one-arm antibody
# B15: GLS3000 L27bD (Kabat) L chain altered form, one-arm antibody with CE115HA000 (antibody, human IgG1, kappa, L234A L235A, N297A, name in Kabat numbering)
# heavy: B1 heavy
# chain: B1 chain
# light: B1 light with L29D, K31H
# notes: one-arm antibody
# B16: GLS3000 L27bE (Kabat) L chain altered form, one-arm antibody with CE115HA000 (antibody, human IgG1, kappa, L234A L235A, N297A, name in Kabat numbering)
# heavy: B1 heavy
# chain: B1 chain
# light: B1 light with L29E, K31H
# notes: one-arm antibody
# B17: GLS3000 L27bF (Kabat) L chain altered form, one-arm antibody with CE115HA000 (antibody, human IgG1, kappa, L234A L235A, N297A, name in Kabat numbering)
# heavy: B1 heavy
# chain: B1 chain
# light: B1 light with L29F, K31H
# notes: one-arm antibody
# B18: GLS3000 L27bI (Kabat) L chain altered form, one-arm antibody with CE115HA000 (antibody, human IgG1, kappa, L234A L235A, N297A, name in Kabat numbering)
# heavy: B1 heavy
# chain: B1 chain
# light: B1 light with L29I, K31H
# notes: one-arm antibody
# B19: GLS3000 L27bM (Kabat) L chain altered form, one-arm antibody with CE115HA000 (antibody, human IgG1, kappa, L234A L235A, N297A, name in Kabat numbering)
# heavy: B1 heavy
# chain: B1 chain
# light: B1 light with L29M, K31H
# notes: one-arm antibody
# B20: GLS3000 L27bP (Kabat) L chain altered form, one-arm antibody with CE115HA000 (antibody, human IgG1, kappa, L234A L235A, N297A, name in Kabat numbering)
# heavy: B1 heavy
# chain: B1 chain
# light: B1 light with L29P, K31H
# notes: one-arm antibody
# B21: GLS3000 L27bS (Kabat) L chain altered form, one-arm antibody with CE115HA000 (antibody, human IgG1, kappa, L234A L235A, N297A, name in Kabat numbering)
# heavy: B1 heavy
# chain: B1 chain
# light: B1 light with L29S, K31H
# notes: one-arm antibody
# B22: GLS3000 L27bV (Kabat) L chain altered form, one-arm antibody with CE115HA000 (antibody, human IgG1, kappa, L234A L235A, N297A, name in Kabat numbering)
# heavy: B1 heavy
# chain: B1 chain
# light: B1 light with L29V, K31H
# notes: one-arm antibody
# B23: GLS3000 L27bW (Kabat) L chain altered form, one-arm antibody with CE115HA000 (antibody, human IgG1, kappa, L234A L235A, N297A, name in Kabat numbering)
# heavy: B1 heavy
# chain: B1 chain
# light: B1 light with L29W, K31H
# notes: one-arm antibody
# B24: GLS3000 L27bY (Kabat) L chain altered form, one-arm antibody with CE115HA000 (antibody, human IgG1, kappa, L234A L235A, N297A, name in Kabat numbering)
# heavy: B1 heavy
# chain: B1 chain
# light: B1 light with L29Y, K31H
# notes: one-arm antibody
# B25: GLS3000 L33A (Kabat) L chain altered form, one-arm antibody with CE115HA000 (antibody, human IgG1, kappa, L234A L235A, N297A, name in Kabat numbering)
# heavy: B1 heavy
# chain: B1 chain
# light: B1 light with K31H, L38A
# notes: one-arm antibody
# B26: GLS3000 N28A (Kabat) L chain altered form, one-arm antibody with CE115HA000 (antibody, human IgG1, kappa, L234A L235A, N297A, name in Kabat numbering)
# heavy: B1 heavy
# chain: B1 chain
# light: B1 light with K31H, N33A
# notes: one-arm antibody
# B27: GLS3000 N28D (Kabat) L chain altered form, one-arm antibody with CE115HA000 (antibody, human IgG1, kappa, L234A L235A, N297A, name in Kabat numbering)
# heavy: B1 heavy
# chain: B1 chain
# light: B1 light with K31H, N33D
# notes: one-arm antibody
# B28: GLS3000 N28E (Kabat) L chain altered form, one-arm antibody with CE115HA000 (antibody, human IgG1, kappa, L234A L235A, N297A, name in Kabat numbering)
# heavy: B1 heavy
# chain: B1 chain
# light: B1 light with K31H, N33E
# notes: one-arm antibody
# B29: GLS3000 N28F (Kabat) L chain altered form, one-arm antibody with CE115HA000 (antibody, human IgG1, kappa, L234A L235A, N297A, name in Kabat numbering)
# heavy: B1 heavy
# chain: B1 chain
# light: B1 light with K31H, N33F
# notes: one-arm antibody
# B30: GLS3000 N28G (Kabat) L chain altered form, one-arm antibody with CE115HA000 (antibody, human IgG1, kappa, L234A L235A, N297A, name in Kabat numbering)
# heavy: B1 heavy
# chain: B1 chain
# light: B1 light with K31H, N33G
# notes: one-arm antibody
# B31: GLS3000 N28H (Kabat) L chain altered form, one-arm antibody with CE115HA000 (antibody, human IgG1, kappa, L234A L235A, N297A, name in Kabat numbering)
# heavy: B1 heavy
# chain: B1 chain
# light: B1 light with K31H, N33H
# notes: one-arm antibody
# B32: GLS3000 N28I (Kabat) L chain altered form, one-arm antibody with CE115HA000 (antibody, human IgG1, kappa, L234A L235A, N297A, name in Kabat numbering)
# heavy: B1 heavy
# chain: B1 chain
# light: B1 light with K31H, N33I
# notes: one-arm antibody
# B33: GLS3000 N28K (Kabat) L chain altered form, one-arm antibody with CE115HA000 (antibody, human IgG1, kappa, L234A L235A, N297A, name in Kabat numbering)
# heavy: B1 heavy
# chain: B1 chain
# light: B1 light with K31H, N33K
# notes: one-arm antibody
# B34: GLS3000 N28L (Kabat) L chain altered form, one-arm antibody with CE115HA000 (antibody, human IgG1, kappa, L234A L235A, N297A, name in Kabat numbering)
# heavy: B1 heavy
# chain: B1 chain
# light: B1 light with K31H, N33L
# notes: one-arm antibody
# Biological target: T1, CD3 epsilon homodimer protein (UniProt P07766 23-126)
# T1 construct: construct not described; homodimer as printed; also called CD3 (CD3 epsilon)
# T1 sequence (P07766 23-126): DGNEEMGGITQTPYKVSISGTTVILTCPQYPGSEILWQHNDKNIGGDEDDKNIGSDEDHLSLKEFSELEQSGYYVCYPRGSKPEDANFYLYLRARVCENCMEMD
# Experiment: SPR Biacore T200, CD3 epsilon homodimer immobilized; vs unaltered GLS3000;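 note: antibody variants flowed as analyte over CD3 epsilon homodimer amine-coupled to a CM4 chip, at 25 °C in HBS-EP+ running buffer, fitted with Biacore T200 Evaluation Software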
row,Binder,KD ratio to GLS3000 (Affinity up)
1,B1,3.8
2,B2,3.37
3,B3,3.43
4,B4,3.43
5,B5,9.21
6,B6,7.48
7,B7,2.35
8,B8,3.05
9,B9,13000
10,B10,354
11,B11,1.86
12,B12,1.98
13,B13,1.18
14,B14,59.5
15,B15,25.1
16,B16,26.8
17,B17,2.67

row,Binder,KD ratio to GLS3000 (Affinity up)
1,B18,1.17
2,B19,1.31
3,B20,0.96
4,B21,0.9
5,B22,1.11
6,B23,23.6
7,B24,22.2
8,B25,0.82
9,B26,4.18
10,B27,4460
11,B28,5.47
12,B29,2.59
13,B30,2.41
14,B31,3
15,B32,2.81
16,B33,2.34
17,B34,3.34
